Assay results published in FireProtDB (doi:10.1021/bi972395d).
Several values for one entry are separate records, joined by “and”; a condition that tells them apart may be missing. Identical values can stand only once.

B1: Superoxide dismutase [Mn], mitochondrial, P04179 (parent)
chain: MLSRAVCGTSRQLAPVLGYLGSRQKHSLPDLPYDYGALEPHINAQIMQLHHSKHHAAYVNNLNVTEEKYQEALAKGDVTAQIALQPALKFNGGGHINHSIFWTNLSPNGGGEPKGELLEAIKRDFGSFDKFKEKLTAASVGVQGSGWGWLGFNKERGHLQIAACPNQDPLQGTTGLIPLLGIDVWEHAYYLQYKNVRPDYLKAIWNVINWENVTERYMACKK

Variants of: B1
Settings: Homo sapiens; pH 7.8; 70 °C; Thermal; DSC; potassium phosphate 2 mM; transition: 2; reversible: Yes; structure 1N0J; whole UniProt chain shown

Row | Variant | ddG of mutation (higher = less stable) [kcal/mol]
1 | MLSRAVCGTSRQLAPVLGYLGSRQKHSLPDLPYDYGALEPHINAQIMQLHHSKHHAAYVNNLNVTEEKYQEALAKGDVTAQIALQPALKFNGGGHINHSIFWTNLSPNGGGEPKGELLEAIKRDFGSFDKFKEKLTAASVGVQGSGWGWLGFNKERGHLQIAACPNNDPLQGTTGLIPLLGIDVWEHAYYLQYKNVRPDYLKAIWNVINWENVTERYMACKK [Q167N] | -2.79

Same assay, conditions: Homo sapiens; pH 7.8; 88.9 °C; Thermal; DSC; potassium phosphate 2 mM; transition: 2; reversible: Yes; structure 1N0J; whole UniProt chain shown

Row | Variant | ddG of mutation (higher = less stable) [kcal/mol]
2 | MLSRAVCGTSRQLAPVLGYLGSRQKHSLPDLPYDYGALEPHINAQIMQLHHSKHHAAYVNNLNVTEEKYQEALAKGDVTAQIALQPALKFNGGGHINHSIFWTNLSPNGGGEPKGELLEAIKRDFGSFDKFKEKLTAASVGVQGSGWGWLGFNKERGHLQIAACPNNDPLQGTTGLIPLLGIDVWEHAYYLQYKNVRPDYLKAIWNVINWENVTERYMACKK [Q167N] | -0.06

Same assay, conditions: Homo sapiens; pH 7.8; Thermal; DSC; potassium phosphate 2 mM; transition: 2; reversible: Yes; structure 1N0J; whole UniProt chain shown

Row | Variant | unfolding enthalpy (calorimetric)
3 | MLSRAVCGTSRQLAPVLGYLGSRQKHSLPDLPYDYGALEPHINAQIMQLHHSKHHAAYVNNLNVTEEKYQEALAKGDVTAQIALQPALKFNGGGHINHSIFWTNLSPNGGGEPKGELLEAIKRDFGSFDKFKEKLTAASVGVQGSGWGWLGFNKERGHLQIAACPNNDPLQGTTGLIPLLGIDVWEHAYYLQYKNVRPDYLKAIWNVINWENVTERYMACKK [Q167N] | 100 kcal/mol and 78.3 kcal/mol
